# Assay: yeast display, Sf9 membrane polyspecificity reagent, FACS + sequencing; frameworks hold sequencing errors
# How it was run: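 In a synthetic yeast display library (Saccharomyces cerevisiae BJ5465), nanobody expression was induced with galactose for 36–48 hours. FACS gates were set low and high (top ~1%) using anti-HA fluorescence for expression and streptavidin fluorescence for binding of the Sf9 membrane reagent. Each polyreactivity label is drawn from the gate of origin.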
row,Sequence,polyreactivity (PSR sort gate)
1,QVQLVESGGGLVQAGGSLRLSCAASGFTIYLYTMGWYRQAPGKERELVAAITSSGTRTYYADSVKGRFTISRDNAKNTVYLQMNSLKPEDTAVYYCNAARYGRHLSTYDYWGQGTQVTVSS,high polyreactivity
2,QVQLVESGGGLVQAGGSLRLSCAASGSIFGGYTMGWYRPAPGKERELVAAITKNGGRTYYADSVKGRFTISRDTAKPTVYLQMNSLKPEDTAVYYCAAATSPSWYTWVTYDYWGQGTQVTVSS,high polyreactivity
3,QVQLVESGGGLVQAGGSLRLSCAASGSIFWRNAIGWYRQAPRKERELVAAISRVGSTNYADSVKGRFTISRDNAKNTVYLQMTSLKPEDTAVYYCAKDSIWRVYEYDYWGQGTQVTVSS,low polyreactivity
4,QVQLVESGGGLVQAGGSLRLSCAASGRIFDWNVMGWYRQAPGKERELVAVINDSTGTTYYADSVKGRFTISRDNAKNTVYLQMNSLKPEDTAVYYCSADWSVFTYFYGYDYWGQGTQVTVSS,low polyreactivity
5,QVQLVESGGGLVQAGGSLRLSCAASGSTFGYNAMGGYRQAPGKERELVAAITWTGASTYYADSVKGRFTISRDNAKNTVYLQMNSLKPEDTAVYYCNLVGYQSMNYWGQGTQVTVSS,low polyreactivity
6,QVQLVESGGGLVHAGGSLRLSCAASGITFERYAMGWYRQAPGKERELVAAITSSGGSTYYADSVKGRFTISRDNAKNTVYLQMNSLKPEDTAVYYCAARTAYTPRHDYWGQGTEVTVSS,high polyreactivity
7,QVQLVESGGGLVQAGGSLRLSCAASGSTFSVYAMGWYRQAPGKERELVAAITWRGGTTYYADSVKGRFTISRDYAKNTVYLQMNSLKPEDTAVYYCNADWWRTLESDYWGQGTQVTVSS,low polyreactivity
8,QVQLVESGGGLVQAGGSLRLSCAASGSIFDAYVMGWYRQAPGKERELVAAISRSGGSTYYADSVKGRFTISRDNAKNTVYLQMNSLKPEDTAVYYCAAEKIRSSPYRYDYWGQGTQVTVSS,low polyreactivity
9,QVQLVESGGGLVQAGGSLRLSCAASGLTFYVYAMGWYRQAPGKERELVAAISSGGRTYYADSVKGRFTISRDNAKNTVYLQMNSLKPEDTAVYFCAAVRHRNYGYWGQGTQVTVSS,high polyreactivity
10,QVQLVESGGGLVQAGGSLRLSCAASGRTFKRNAMGWYRQAPGKERELVASISWRGGSTYYADSVKGRFTISRDNAKNTVFLQMKSLKPEDTAVYYCAAQYPVWRRLYRTWLVAEVDYWGQGTQVTVSS,low polyreactivity
11,QVQLVESGGGLVQAGGSLRLSCAASGRIFIVYAMGWYRQAPGKERELVATISWSGGSTYYADSVKGRFTISRDNAKNTVYLQMTSLKPEDTAVYYCAADYRWVDSDSSLFYWYDYWGQGTQVTVSS,high polyreactivity
12,QVQLVESGGGLVQAGGSLRLSCAASGIIFQHNAMGWYRQAPGKERELVAAISSNGGRTFYPDSVKGRFTISRDNAKNTVYLQMNSLKPEDTAVYYCNRQYPSRYGYWGQGTQVTVSS,high polyreactivity
13,QVQLVESGGGLVQAGGSLRLSCAASGSIFQHYAMGWYRQAPGKERELVAAISYDTTSTYYADSVKGLFTISRDNAKNTVYLQMNSLKPEDPAVYYCNTDPEVYGPFQYDYWGQGTQVTVSS,low polyreactivity
14,QVQLVESGGGLVQAGGSLRLSCAASGRTFTYNVMGWYRQAPGKERELVAAITSGGTNYADSVKGRFTISRDNAKNTVYLQMNSLKPEDTAVYYCATDYYDDVTIGYDYWGQGTQVTVSS,low polyreactivity
15,QVKLVESGGGLVQAGGSLRLTCAASGFTFTPNAMGWYRQAPGKEMELVAAITRSSGRTYYADSVKGRFTISRDNAKNTVYLQMNSLKPEDTAVYYCAARYASTPYARFGFWGQGTQVTVSS,high polyreactivity
16,QVQLVESGGGLVQAGGSLRLSCAASGSTISYYAMGWYRQAPGKERELVAAISSRGVITYYADSVKGRFTISRDNAKNTVYLQMNSLKPEDTAVYYCNVDSAWYPYETEDYWGQGTQVTVSS,low polyreactivity
17,QVQLVESGGGLVQAGGSLRLSCAASGSTSKSYTMGWYRQAPGKERELVAAISYSGVSTYYADSVKGRFTISRDNAKNTVYLQMNSLKPEDTAVYDGAADWVPRQYPGRGGYWGQGTQVTVSS,high polyreactivity
18,QVQLVESGGGLVQAGGSLRLSCAASGSIFLGNAMGWYRQAPGKESELVAAISSITGRTYYADSVKGRFTISRDNAKNTVYLQMNSLKPEDTAVYYCNKVKRSFIVNTDDYWGQGTQVTVSS,high polyreactivity
19,QVQLVESGGGVDQAGGSLRLSCAASGSIFDLNARGGYRQAPGTERELVASIRDSGGRTYYADSVKGRFTISRDNAKNTVYLQMNSLKPEDTALYYCAAKPRRPGRGYWGQGTQVTVSS,high polyreactivity
20,QVQLVESGGGLVQAGGSLRLSCAASGSTIFSYAMGWYRQAPGKERELVAAITYRSSRTYYADSVKGRFTISRDNAKNTVYLQMNSLKPEDTAVYYCAAGYFSYRRYDYWGQGTQVTVSS,high polyreactivity
21,QVQLVESGGGLVQAGGSLRLSCAASGRTNSFYAMGWYRQAPGKERELVAAISRGGTTNYADSVKGRFTISRDNAKNTVYLQMNSLKPEDTAVYYCAASYFRRGFYSIYEYDYWGQGTQVTVSS,low polyreactivity

row,Sequence,polyreactivity (PSR sort gate)
1,QVQLVESGGGLVQAGGSLRLSCAASGFTFSYYAMGWYRQAPGKERELVAAISWSGGSTYYADSVKGRFTISRDNAKNTVYLQMNSLKPEDTAVYYCARVLTRPGRLDYWGQGTQVTVSS,high polyreactivity
2,QVQLVESGGGLVQAGGSLRLSCAASGSTLFDYTMGWYRQAPGNVRELVAAISSSGITDYADSVKGRFTISRDNAQNTVYLQMNSLKPDETAVYYCNARSQKATRYDYWGQGTQVTVSS,high polyreactivity
3,QVQLVESGGGLVQAGGSLSLSCAAYGFTFWKYAMGRSRQAPGKESELVAAISVSGGRTYYADSVKGRFTISGDNAKNTVYLQINSLKPEDTASYYVATSFRNGWGSYYYWGQGTQVTVSS,high polyreactivity
4,QVQLVESGGGLVQAGGSLRLSCAASGLTFPYYAMGWYRQAPGTERELVAAISGGGRTYYADSVKGRFTISRDNAKNTVYLQMNSLKPEDTAVYYCAPFHVGRYTGTVTDGYDYWGQGTQVTVSS,high polyreactivity
5,QVQLVESGGGLVQAGGSLRLSCAASGRNFVAYTMGWSRQAPGKERELVAAIRIIGGSTYYADSVKGRFTISRDNAKNTVYLQMNSLKPVDTAVYFCDTPYAYPGTVQYAGYNYWGQGTQVTVSS,high polyreactivity
6,QVQLVESGGCLVQAGGSLRLSCAASGFIFAYNAMGWYRQAPGKERELVAAISFSGGSTYYADSVKGRFTISRDTANNTVYLQMNSLKPEDTAVYYCAAVRYYWGQGTQVTVSS,high polyreactivity
7,QVQLVESGGGLVQAGGSLRLSCAASGSIFFSNDMGWYRQAPGKERELVASITRDGTSTYADSVKGRFTISRDNAKNTVYLQMNSLKPEETAVYYCAADRYLQGFYGRWHGYDSWGQGTQVTVSS,low polyreactivity
8,QVQLVESGGVLVQAGGRLSLICAASGRTFARYVMGWYRKAPGKERELVAAINSGGTTYYADSVKGRFTISRDNAKNTVYLQMNSLKPEDTAVYYCNARRGHYAYDYWGQGTQVTVSS,high polyreactivity
9,QVQLVESGGGLVQAGGSLRLSCAASGSIFWLYAMGWYRQAPGKERELVAAINWSTGRTYYADSVKGRFTISRDNAKNTVYLQMNSLKPEDTAVYYCAADLNWWFDYSSPDEMYYWGQGTQVNVSS,high polyreactivity
10,QVQLVESWGGLVQAGGSLRLSCAASGYISNAMGWYRQAPGKERELVAVITRGGSTNYADSVKGRFTISRDNAKNTVYLQMNSLKPEDTAVYYCAKDVPYRRVRSEYWGQGTQVTVSS,low polyreactivity
11,QVQLVESGGGLVQAGGSLRLSCAASAFTFRRYVKGWYRQAPGKERELVAAISSGGRTNYADSVKGRFTISRYNAKNTVYLQMNSLKPEDTAVYYCAADRYSSYYVLYDYWGQGTQVSVSS,high polyreactivity
12,QVQLVESGGGLVQAGGSLRLRCAASGTNSVQYAMGGYRQAPGKERELVAAIDRSGGSTSYADSVKGRFTISRDNAKNTVYLQMNSLKQEDTAVYYCNADPFRSTYSYDYWGQGTQVTVSS,low polyreactivity
13,QDQLVESGRGLVQAGGSLRLSCAASGFIFYNYAMGWYIQAPGKERELVAAISASGGRTYFADSVQGRFTISRDNAKNTVYLQMNRLKPEDTAFYYCNARVNYKGYDYWGQGTQVTVSS,high polyreactivity
14,QVQLVESGGGLVQAGGSLRLRCAASGSTFPYNAMGWYRQAPGKERELVAAITSAVGTNYADSVKGRVTISRDNAKNTVYLQMNSLKREDTAVYYCAARYIETPLTVLSLMDYWGQGTQVTVSS,low polyreactivity
15,QVQLVESGGGLVQAGGSLRLSCAATGITFYPNDMGWYRQAPGKERELVAAITTNDGDTYYADSVKGRFTISRDNAKNTVYLQMNSLKPEDTAVYYCAADSGSTSEYEYWGQGTQVTVSS,low polyreactivity
16,QVQLVESGGGLVQAGGSHRLSCAASGRTFCKYAMGWYRQAPGKERELVAAITAGGGTKYADSVKGRFTISRDNAKNTVYLQMNSLKPEDTAVYYCAAASGSRRHGYWGQGTQVTVSS,high polyreactivity
17,QVQLVESGGGLVQAGGSLRLSCAASGYTFAWYAMGWYRQAPGKERELVAAITVSGGSTYYADSVKGRFTISRDNAKNTVYVQMNSLKPEDTAVYYCAADYAPLDLYQDSTVYSSGDYWGQGTQVTVSS,low polyreactivity
18,QVQLVESGGGLVQAGGSLRLSCAASGNIFYWNVMGWYRQAPGKERELVAVISNGGRTYYADSVKGRFTISRDNAKNTVYLQMNSLKPEDTAVYYCAAEYDRLSKRYDYWGQGTQVTVSS,high polyreactivity
19,QVQLVESGAGLVQAGGRLRLSCAASGRIFDGYAMGWYRQAPGKERELVAAITASGGSTYYADSVKGRFTISRDNAKITVYLQMNSLKPEDTAVYYCAVDYSYWVEYWGQGTQVTVSS,high polyreactivity
20,QVQLVDSGGGLVQAGGSLRLTCAASGIIFRLYGMGWYRQAPGKEREFVATITWRGGRTNYADSVKGRFTISRDNAKNTVYLQMNSLKPEDTAVYYCAKVVRYARSNEYDSWGQGTQVTVSS,low polyreactivity

# — the nanobody polyreactivity screen of Harvey et al. (2022)
